Experimental data from US20140314667A1, “METHODS OF TREATING EPIDERMAL GROWTH FACTOR DELETION MUTANT VIII RELATED DISORDERS” (AMGEN INC., priority 2011, published 2014).
Residue numbers refer to the chain shown, from its start. Each block holds one molecule with its values, some of them ahead of it.

Key:
[1] = molecular target: T1, EGFRvIII receptor on NR6 M cells (Homo sapiens, UniProt P00533, DELINS30-297G); assay: Internalization assay (FMAT, glutathione) of B cell culture supernatants; format: cell-based; settings: for % internalized, (glut+/glut−) × 100 / With glutathione FL1xcount: 37° C. for 30 mins; for With glutathione FL1xcount: 50 mM glutathione; for No glutathione FL1xcount: kept on ice
T1 construct: NR6 M cells stably expressing full length EGFRvIII; expressed in transfected cells; host or cells: NR6 cells (NR6 M)
Description: The top 60 native binding B cell culture supernatants were further assayed for their ability to internalize the receptor. NR6 M cells were seeded at 8000 cells/well into 96 well FMAT plates and incubated overnight. Media was removed and 10-15 μl B-Cell culture supernatant in a total volume of 30 μl media, in duplicate was added. Next, 15 μl of secondary antibody (SS Alexa 647 anti-human IgG Fab at 1.5 μg/ml final concentration) was added and the mixture was incubated on ice for 1 hr. An irrelevant B-Cell Culture supernatant was used to see the effect of the culture media. Human anti-EGFRvIII mAb 13.2.1 was used as a positive control starting at 1 μg/ml (final concentration) and negative control was PK 16.3.1 (human anti-KLH IgG2 antibody) at the same concentration. After incubation, the cells were washed with cold PBS, 50 μl media was added to all of the wells, one of the duplicates were incubated at 37° C. for 30 mins while the other duplicate remained on ice. After the incubations media was removed, 100 ul of cold 50 mM glutathione was added to the set incubated at 37° C. and 100 μl of cold media added to the other set, both sets were then left on ice for 1 hr. The cells were then washed with 100 μl cold PBS and then fixed with 1% paraformaldehyde and read in FMAT. The results were expressed as % internalized, calculated as total fluorescence in the presence of glutathione/total fluorescence in the absence of glutathione×100.

[2] = molecular target: T2, EGFRvIII receptor in NR6 M cells (Homo sapiens, UniProt P00533, DELINS30-297G); assay: Internalization of EGFRvIII receptor by recombinant mAbs (FACS); format: cell-based; settings: 0.25 μg/ml antibody, 1 hr
T2 construct: NR6 M cells stably expressing full length EGFRvIII; expressed in transfected cells; host or cells: NR6 cells (NR6 M)
Description: XenoMax derived IgG1 recombinant antibodies were expressed, purified and quantitated as described previously. Antibodies were further assayed for their ability to internalize the EGFRvIII receptor in NR6 M cells. […] The cells were washed with cold 10% FCS in PBS and secondary antibody (SS Alexa antihuman IgG Fab) at 3 μg/ml Fab was added and incubated for 7 mins on ice. The cells were washed with cold 10% FCS in PBS once and then resuspended in cold media. Next, two sets of the triplicate were incubated at 37° C. and the remaining set was incubated at 4° C. for 1 hr. After that the cells incubated at 4° C. and one set of the cells incubated at 37° C. were treated with glutathione (as previously mentioned) for 1 hr on ice. Then the cells were washed and resuspended in 100 μl of cold 1% FCS in PBS and analyzed by FACS. The % internalization was calculated from the geometric mean obtained from the FACS analysis [(mean at 37° C. with glutathione−mean at 4° C. with glutathione)/(mean at 37° C. without glutathione−mean at 4 C with glutathione)].

[3] = molecular target: T3, NR6 Wt cells (NR6 cells expressing EGF receptor) (Homo sapiens, UniProt P00533); assay: Native cell binding assay by FMAT, NR6 Wt cells; settings: for cross-reactivity with wild type EGFR: XenoMax approach, in words; for FMAT native binding to NR6 Wt cells: total fluorescent intensity
T3 construct: expressed in transfected cells; host or cells: NR6 cells (NR6 Wt)
Text: The same type of native binding assay was done on NR6 Wt cells (NR6 cells expressing EGF receptor) (See Batra et al. Epidermal growth factor ligand-independent, unregulated, cell-transforming potential of a naturally occurring human mutant EGFRvIII gene. Cell Growth Differ. 6(10):1251-9 (1995)) to eliminate the binding is due to binding to Wt receptor (Table 3.8). ABX-EGF was used as a positive control and PK 16.3.1 at the same concentration was used as a negative control antibody. 3 out the 134 NR6 M binders were binding strongly to NR6 Wt cells. 190 of the 244 wells bound EGFRvIII peptide in Elisa were also bound to the native form on cells.
In this example, binding of anti-EGFRvIII antibodies to NR6 M cells was measured. Specifically, unquantitated supernatants of XenoMax derived IgG1 recombinant antibodies were assayed for their ability to bind to NR6 M and NR6 WT cells. Cells were seeded at 10000/well and incubated overnight at 37 C in FMAT 96 well plates. Media was removed and 40 μl mini lipo supernatant (titrated down) was added, the cells were incubated on ice for 1 hr. […] The PK 16.3.1 antibody was used as a negative control. The cells were washed with Cold PBS, secondary antibody was added (SS Alexa antihuman IgG Fc) at 1 μg/ml, 40 μl/well and incubated on ice for 1 hr. The cells were then washed with Cold PBS and fixed and read by FMAT. All antibodies were tested for specificity for binding by counter screening against NR6 WT cells.

[4] = molecular target: T4, EGFRvIII-peptide-OVA (Homo sapiens, UniProt P00533, DELINS30-297G); assay: B-cell culture supernatant ELISA on EGFRvIII-peptide-OVA; format: binding; settings: for binding with the pep3: XenoMax approach, in words; for 1′ VIII-pep-OVA OD / 2′ VIII-pep-OVA OD: Table 3.8
T4 construct: 207 μg of EGFRvIII PEP3 was reduced; host or cells: synthetic peptide, chemical conjugation
Description: B-cells from the above-discussed animals were harvested and cultured. Those secreting EGFRvIII-peptide specific antibodies were isolated as described in Babcook et al., Proc. Natl. Acad. Sci. USA, 93:7843-7848 (1996). ELISA was used to identify primary EGFRvIII-peptide-OVA-specific wells. About 5 million B-cells were cultured from XenoMouse animals in 24596 well plates at 500 or 150 or 50 cells/well, and were screened on EGFRvIII-peptide-OVA to identify the antigen-specific wells.
(§1) 244 of EGFRvIII-peptide-OVA-Elisa positive wells of OD >0.5 were screened again on EGFRvIII-peptide-OVA and on OVA to confirm that they were EGFRvIII-peptide specific.

[5] = molecular target: T5, native form of EGFRvIII stably expressed on NR6 cells (NR6 M cells) (Homo sapiens, UniProt P00533, DELINS30-297G); assay: Native cell binding assay by FMAT, NR6 M cells; settings: total fluorescent intensity
T5 construct: NR6 M cells stably expressing full length EGFRvIII; expressed in transfected cells; host or cells: NR6 cells (NR6 M)
Description: EGFRvIII peptide-OVA-Elisa positive well supernatants were analyzed for their ability to bind to the native form of EGFRvIII stably expressed on NR6 cells (NR6 M cells) (See, Batra et al. Epidermal growth factor ligand-independent, unregulated, cell-transforming potential of a naturally occurring human mutant EGFRvIII gene. Cell Growth Differ. 6(10):1251-9 (1995)). NR 6 M cells were seeded at 8000 cells per well and incubated over night in 96 well FMAT plates. Media was then removed leaving 15 μl in the well. 15 μl B-cell culture supernatants were added and 15 μl anti-human IgG Fc Cy5 at 1 μg/ml final concentration added to wells. It is then left incubated at 4° C. for 2 hours. The cells were washed with 150 μl PBS, and fixed before reading on FMAT. The results were expressed as total fluorescent intensity (Table 3.8).

[6] = molecular target: T6, OVA (Gallus gallus, UniProt P01012); assay: B-cell culture supernatant ELISA on OVA (specificity control); format: binding; settings: Table 3.8
T6 sequence (P01012 1-386): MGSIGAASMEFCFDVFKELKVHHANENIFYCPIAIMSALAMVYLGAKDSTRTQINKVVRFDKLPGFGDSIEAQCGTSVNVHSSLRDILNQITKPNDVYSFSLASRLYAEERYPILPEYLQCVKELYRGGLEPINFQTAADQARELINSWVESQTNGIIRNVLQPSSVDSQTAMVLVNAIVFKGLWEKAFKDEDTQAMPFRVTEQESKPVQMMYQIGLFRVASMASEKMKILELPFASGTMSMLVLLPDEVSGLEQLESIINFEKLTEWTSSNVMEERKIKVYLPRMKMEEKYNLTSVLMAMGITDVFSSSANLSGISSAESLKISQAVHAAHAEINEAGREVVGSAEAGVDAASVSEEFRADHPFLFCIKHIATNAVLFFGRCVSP
Text: as §1

B1: 170: XenoMax derived anti-EGFRvIII antibody, SEQ ID NO: 4/20 (antibody, listed as Homo sapiens, V domains shown)
VH: QVQLQQSGPGLVKPSQTLSLTCAISGDSVSSNNAAWNWIRQSPARGLEWLGRTYYRSKWYNDYVVSVKSRITINPDTSKNQFSLQLNSVTPEDTAVYYCVRATAFDYWGQGTLVTVSS
VL: AIVLTQTPLSSPVTLGQPASISCRSSQSLVHRDGNTYLSWLQQRPGQPPRLLIYKISNRFSGVPDRFSGSGAGTDFTLKISRVEPDDVGVYYCMHTTQLPWTFGQGTKVEIK
% internalized, (glut+/glut−) × 100 [1]: 52.8%
With glutathione FL1xcount [1]: 1236
No glutathione FL1xcount [1]: 2342
FACS Geometric mean With glutathione 4° C. [2]: 4.67
FACS Geometric mean With glutathione 37° C. [2]: 7.75

B4: 250: XenoMax derived anti-EGFRvIII antibody, SEQ ID NO: 9/26 (antibody, listed as Homo sapiens, V domains shown)
VH: EGQLLESGGGWVQPGESLRLSCAASGFTFSSYAMSWVRQAPGKGLEWVSAISGSGGSTNYADSVKGRFTISRDNSKNTLYLQVNSLRVEDTAVYYCAGSSGWSEYWGQGTLVTVSS
VL: DIQMTQSPSSLSASVGDSVTITCRTSQGIRKNLGWYQQKPGKAPKRLIYAASSLQSGVPSRFSGSGSGTEFTLTISRLQPEDFATYYCLQHHSYPLTFGGGTRVEIR
cross-reactivity with wild type EGFR [3]: limited cross-reactivity with wild type EGFR
FACS Geometric mean With glutathione 4° C. [2]: 4.84
FACS Geometric mean With glutathione 37° C. [2]: 8.07
binding with the pep3 [4]: highly specific

B5: 333: XenoMax derived anti-EGFRvIII antibody, SEQ ID NO: 17/32 (antibody, listed as Homo sapiens, V domains shown)
VH: QVQLVESGGGVVQPGRSLRLSCVASGFTLSSYGMHWVRQALGKGLEWVAVTSYDGSKKDYADSVKGRFTISRDNSKNTLYLQMNSLRAEDTAVYYCVSEGYCDSTSCYKYYYYGMDVWGQGTTVTVSS
VL: DIVMTQSPLSLPVTPGEPASISCRSSQSLLYRNGNNYLDWYLQRPGQSPQLLIYLGSNRASGVPDRFSGSGSGTDFTLKISRVEAEDVGVYYCMQALQTPRTFGQGTKVEIK
FMAT native binding to NR6 M cells [5]: 109379
% internalized, (glut+/glut−) × 100 [1]: 37.1%
With glutathione FL1xcount [1]: 13293
No glutathione FL1xcount [1]: 35820
FMAT native binding to NR6 Wt cells [3]: 0
OVA OD [6]: 0.1649
1′ VIII-pep-OVA OD [4]: 0.8555
2′ VIII-pep-OVA OD [4]: 1.2070

B6: 211: XenoMax derived anti-EGFRvIII antibody, SEQ ID NO: 12/28 (antibody, listed as Homo sapiens, V domains shown)
VH: B5 VH with L41P, V64A, D103S, T105S
VL: B5 VL
FACS Geometric mean With glutathione 4° C. [2]: 4.78
FACS Geometric mean With glutathione 37° C. [2]: 8.23

Continued, in another order:

FACS Geometric mean With glutathione 4° C. [2]: 5.13
FACS Geometric mean With glutathione 37° C. [2]: 17.75
binding with the pep3 [4]: highly specific
B2: 095: XenoMax derived anti-EGFRvIII antibody, SEQ ID NO: 7/23 (antibody, listed as Homo sapiens, V domains shown)
VH: QVQLQESGPFLVKPSQTLSLTCTVSGGSISSGGYYWSWIRQHPGKGLEWIGFIYYRGNTYYNPSLKSRVTISVDTSKNQFSLKLSSVTAADTAVYYCARDGYCSRTGCYGGWFDPWGQGTLVTVSP
VL: DIVMTQTPLSSPVTLGQPASISCRSSQSLIHTDGNIYLSWLQQRPGQPPRLLIYKISNRFSGVPDRFSGSGAGTDFTLKISRVEAEDVGVYYCMQGTQFPITFGQGTRLEIK
cross-reactivity with wild type EGFR [3]: limited cross-reactivity with wild type EGFR

FACS Geometric mean With glutathione 4° C. [2]: 4.66
FACS Geometric mean With glutathione 37° C. [2]: 7.78
B3: 150: XenoMax derived anti-EGFRvIII antibody, SEQ ID NO: 5/21 (antibody, listed as Homo sapiens, V domains shown)
VH: QVQLQQSGPGLVKPSQTLSLTCAISGDSVSSYSSAWNWIRQSPSRGLEWLGRAYHRSRWYYEYAVSVKSRINITPDTSKNQFSLQLNSVTPEDTAVYYCARGSRFDYWGQGTLVTVSS
VL: B1 VL with A1D, L4M, P85A, D86E, V90I, Y92F, L99F, K108R

FMAT native binding to NR6 M cells [5]: 84024
% internalized, (glut+/glut−) × 100 [1]: 31.5%
With glutathione FL1xcount [1]: 8708
No glutathione FL1xcount [1]: 27648
FMAT native binding to NR6 Wt cells [3]: 0
OVA OD [6]: 0.1515
1′ VIII-pep-OVA OD [4]: 2.1501
2′ VIII-pep-OVA OD [4]: 2.8208
B7: 129A7: XenoMax derived anti-EGFRvIII antibody, heavy chain of 124 (SEQ ID NO: 13), light chain of 123 (SEQ ID NO: 29) (antibody, listed as Homo sapiens, V domains shown)
VH: B5 VH with V23A, L41P, T51M, K58E, K76E, D103S, T105R
VL: B5 VL with R44K, K79N, V90H
